Measurements: the nanobody polyreactivity screen of Harvey et al. (2022)

Test: yeast display, Sf9 membrane polyspecificity reagent, FACS + sequencing; frameworks hold sequencing errors
Outline: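 Nanobodies from a synthetic yeast display library (Saccharomyces cerevisiae BJ5465), induced 36–48 hours with galactose, were stained 1 hour at 4 °C with 10% biotinylated, detergent-solubilized Sf9 membrane reagent, enriched on streptavidin microbeads, then FACS-sorted. Anti-HA (expression) and streptavidin (reagent binding) fluorescence set low and high (top ~1%) gates. Polyreactivity labels come from the gate of origin. Genes were colony-PCR amplified, MiSeq 2 × 250 sequenced and filtered by CDR length.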

Row | Sequence | polyreactivity (PSR sort gate)
1 | QVQLVESGGGLVQAGGSLRLSCAASGFTFARYAMGWYRQAPGKERELVAAISWSGARTYYADSVKGRFTISRDNAKNTVYLQMNSLKPEDTAVYYCNAVSGSSNFDYWGQGTQVTVSS | high polyreactivity
2 | QVQLVESGGGLVQAGGSLRLSCAASGFTFASNAMGWYRQAPGKERELVAAITWGTGTTSYADSVKGRFTISRDYAKNTVYLQMNSLKPEDTAVYYCNARVGPELHDYWGQGTQVTVSS | low polyreactivity
3 | QVQLVESGGGLVQAGGSLRLSCAASGFTFASNAMGWYRQAPGKERELVADITNTGSTYYADSVKGRFTISRDNAKNTVYLQMNSLKPEDTAVYYCAARSRDVTDGQRISAPHGYWGQGTQVTVSS | low polyreactivity
4 | QVQLVESGGGLVQAGGSLRLSCAASGFTFASYAMGWYRQAPGKERELVAAITRRGGSTNYADSVKGRFTISRDNAKNTVFLQMISLKPEDTAVYYCNDLHGVWDPAYDYWGQGTQVTVSS | low polyreactivity
5 | QVQLVESGGGLVQAGGSLRLSCAASGFTFASYVMGWYRQAPGKERELVASISWSGGRTYYADSVKGRFTISRDNAKNTVYLQMNSLKPEDTAVYYCNVLVTRYSPWFLYNYWGLGTQVTVSS | high polyreactivity
6 | QVQLVESGGGLVQAGGSLRLSCAASGFTFAVNVMGWYIHAPGKEREFDAAISWTGGSTDYADSVKGRFTISLDNAKNTVYLQMNSLKPEDTAVYYCAADYNLRLQPFRKLVGPAGGYWGQGTQLTVSS | low polyreactivity
7 | QVQLVESGGGLVQAGGSLRLSCAASGFTFAVYAMGWYRQAPGKERELVAAISRSGTRTYYADSVKGRFTISRDNAKNTVYLQMNSMKPEDTAVYYCAADKYRHGYDYWGQGTQVTVSS | low polyreactivity
8 | QVQLVESGGGLVQAGGSLRLSCAASGFTFAWNAMGWYRQAPGKERELVATIDVSGGSTYYADSVKGRFTISRDNAKNTVYLQMNILKPEDTAVYYCAADELPEGGYDYWGHGTQVTVSS | low polyreactivity
9 | QVQLVESGGGLVQAGGSLRLSCAASGFTFAYYAMGWYRQAPGKERELVAAISYSGGSTYYADSVKGRFTISRDNAKNTVYLQMNSLKPVDTAVYYCAAEAGRRYNWGYDYWGQGTQVTVSS | high polyreactivity
10 | QVQLVESGGGLVQAGGSLRLSCAASGFTFAYYAMGWYRQAPGKERELVAAITRGGGRTFYADSVKGRFTISRDNAKNTVYLQMNSLKPEDTAVYYCAAVKDTTNSRGYGYWGQGTQVTVSS | high polyreactivity
11 | QVQLVESGGGLVQAGGSLRLSCAASGFTFAYYAMGWYRQAPGKERELVADISSGGSTDYADSVKGRFTISRDNAKNTVYLQMNSLKPEDTAVYYCNAVVVRLWYDYDYWGQGTQVTVSS | low polyreactivity
12 | QVQLVESGGGLVQAGGSLRLSCAASGFTFAYYAMGWYRQAPGKERELVASISYNGGITNYADSVKGRFTISRDNAKNTVYLQMNSLKPEDTSVYYCNAVPHYYWRFDYWGQGTQVTVSS | low polyreactivity
13 | QVQLVESGGGLVQAGGSLRLSCAASGFTFAYYAMGWYRQAPGKERELVATITSGGRTYYADSVKGRFTISRDNAKNTVYLQMNSLKPEDTAVYYCAAAGKGRYHFRSTMDYWGQGTQVTVSS | high polyreactivity
14 | QVQLVESGGGLVQAGGSLRLSCAASGFTFAYYTMGWYRQAPGKERELVAAISWSGSSTYYADSVKGRFTISRDNAKNTVYLQMNSLKPEDTAVYYCAAKGWYVQHFKRGLYNYWGQGTQVTVSS | high polyreactivity
15 | QVQLVESGGGLVQAGGSLRLSCAASGFTFDANAIGWYRQAPGKERELVAAISSSGGSTYYADSVKGRFTISRDNAKNTVYLQMNSLKPEDTAVYYCAADLAPGRHDYWGQGTQVTVSS | high polyreactivity
16 | QVQLVESGGGLVQAGGSLRLSCAASGFTFDANAMGWYRQAPGKERELVAAINWSGGSTYYADSVKGRFTISRDNAKYTVYLQMNSLKPEDTAVYYCAAELWGLFDYWGQGTQVTVSS | low polyreactivity
17 | QVQLVESGGGLVQAGGSLRLSCAASGFTFDAYDMGWYRQAPGKERELVASITGGGSTYYADSVKGRFTISRDNAKNTVYLQMNSLKPEDTAVYYCAADLYFEGYNRYYHISGFDYWGQGTQVTVSS | low polyreactivity
18 | QVQLVESGGGLVQAGGSLRLSCAASGFTFDDYTMGWYRPAPGKEREFVAAISSSGGSTYYADSVKGRFTISRDNAKNTVYLQMNSLKPVDTAVYYCAADARYYDYYEYDYWGQGTQVTVSS | high polyreactivity
19 | QVQLVESGGGLVQAGGSLRLSCAASGFTFDFYAMGWYRQAPGKERELVAAISRRGGRTSYADSVKGRFTISRDNAKNTVYLQMNSLKPEDTAVYYCAAASLGGDGLVAYYYWGQGTQVTVSS | high polyreactivity
20 | QVQLVESGGGLVQAGGSLRLSCAASGFTFDFYVMGWYRQAPGKERELVAAISWDGGTTYYADSVKGRFTISRDNAKNTVYLQMNSLKPEDTAVYYCAADDWVYVPTGAWYLYEYWGQGTQVTVSS | high polyreactivity
21 | QVQLVESGGGLVQAGGSLRLSCAASGFTFDGYAMGWDRQAPGKERELVAAISGGGSTYYADSVKGRFTISRDNAKNTVYLQMNSLKPEDTAVYYCAVVYRYRTRSRSYFLPFDYWGQGTQVTVSS | high polyreactivity
22 | QVQLVESGGGLVQAGGSLRLSCAASGFTFDGYGMGWYRHAPGKERELVAVITSGGSTKYADSVKGRFTISRDNAKNTVYLQMNSLKPEDTAVYYCNVVGGRPNPYYDEMDYWGQGPQVTVSS | low polyreactivity

Row | Sequence | polyreactivity (PSR sort gate)
23 | QVQLVESGGGLVQAGGSLRLSCAASGFTFDINTMGWYRQAPGKERELVAAITYSGGSTYYADSVKGRFTISRDKAKNTVYLQMNSLKPEDTAVYYCATTWYFVASWYVAIYDYWGQGTQVTVSS | low polyreactivity
24 | QVQLVESGGGLVQAGGSLRLSCAASGFTFDIYAMGWYRQAPGKEWELVAAITSGGITNYADSVKGRFTISRDNAKNTVYLQMNSLKPEDTAVYYCAADEYLGFYVSHTDWTKYDYWGQGTQVTVSS | low polyreactivity
25 | QVQLVESGGGLVQAGGSLRLSCAASGFTFDKNAMGWYRQAPGKERELVAAINIGSTYYADSVKGRFTISRDNAKNTVYLQMNSLKPEDTAVYYCAKEVPSGYWVNYYYWGQGTQVTVSS | low polyreactivity
26 | QVQLVESGGGLVQAGGSLRLSCAASGFTFDKNAMGWYRQAPGKERELVAAITKSGGSTYYADSVKGRFTISRDNAKNTVYLQMNSLKPEETAVYYCNAPPWSRYYYDLLRHDYWGQGTQVTVSS | low polyreactivity
27 | QVQLVESGGGLVQAGGSLRLSCAASGFTFDLYAKGWYRQAPGKERELVAVITRGGSTYYADSVKGRFTISRDNAKNTVYLQMNSLKPEDTAVYYCAKYSIIDWWGGEDYWGQGTQVTVSS | high polyreactivity
28 | QVQLVESGGGLVQAGGSLRLSCAASGFTFDRNAMGWYRQAPGKERGLVAAISSSGGRTYYADSVKGRFTISRDNAKNTVYLQMNSLKPEDTAVYYCAAVFFSRPSAYGSRYYWGQGTQVTVSS | high polyreactivity
29 | QVQLVESGGGLVQAGGSLRLSCAASGFTFDRNAMGWYRQATWKERELVAAITWTGGSTYYADSVKGRFTISRDNAKNTVYLQMNSLKPEDTAVYYCAATLPYSRGWFYYWGQGTQVTVSS | high polyreactivity
30 | QVQLVESGGGLVQAGGSLRLSCAASGFTFDRYAMGWYRQAPGKERELVAAISRSGASTYYADSVKGRFTISRDNAKNTVYLQMNSLKPDDTAVYYCAAKQRTKGDYWGQGTQVTVSS | high polyreactivity
31 | QVQLVESGGGLVQAGGSLRLSCAASGFTFDRYTMGWYRQAPGKEWELVAVIRRGGSTYYADSVKGRFTISRDNAKNTVYLQMNSLKPEDTAVYYCNALSALAVEDGYWGQGTQVTVSS | low polyreactivity
32 | QVQLVESGGGLVQAGGSLRLSCAASGFTFDSNAMGWYRQAPGKERELGAAISKRGGSTYYADSVKGRFTISRDNAKNTVYLQMNSLKPEDTAVYYCAADNYNSGGTRHMYYWGQGTQVTVSS | high polyreactivity
33 | QVQLVESGGGLVQAGGSLRLSCAASGFTFDVYAMGWYRQAPGKERELVATITWSGGSTTYADSVKGRFTISRDNAKNTVYLQMNSLKPEDTAVYYCAADRSVQVTFDYWGQGTQVTVSS | low polyreactivity
34 | QVQLVESGGGLVQAGGSLRLSCAASGFTFDWYAMGWSRQAPGKERELVAAISSSGTSRYYADSVKGRFTISRDNAKNTVYLQMNSLKPEDTAVYYCAARWYYVTPLRRYGYWGQGTQVTVSS | high polyreactivity
35 | QVQLVESGGGLVQAGGSLRLSCAASGFTFDYYALGWYRQAPGKERELVAAISRGGSTYYADSVKGRFTISRDNGKNTFYLQMNSLKPEDTAVYYCAVSAGKRRLDYWGQGTQVTVSS | high polyreactivity
36 | QVQLVESGGGLVQAGGSLRLSCAASGFTFDYYAMGWYRQAPGKERELVAAISVSDSSTYYADSVKGRFTISRDNAKNTGDLQMNSLKPEDTAVYYCAAEYYVGFTYRYEYWGQGTQVTVSS | low polyreactivity
37 | QVQLVESGGGLVQAGGSLRLSCAASGFTFDYYAMGWYRQAPGKERELVASITFIGGNTNYADSVKGRFTISRDNAKNTVYLQMNSLKPEDTAVYYCAADFPWDYRYWFEYWGQGTQVTVSS | low polyreactivity
38 | QVQLVESGGGLVQAGGSLRLSCAASGFTFEENAMGWYRQAPGKERELVAAINWSGGNTYYADSVKGRFTISRDNAKNTVYLQMNSLKPEDTAVYYCAADSPRYYYWVGPYYGYDYWGQGTQVTVSS | high polyreactivity
39 | QVQLVESGGGLVQAGGSLRLSCAASGFTFEGNAMGWYRQAPGKERELVAAISSNGGRTYYADSVKGRFTISRDNAKNTVYLQMNSLKPEDTAVYYCNALRAYSGPDYDYYHGRRYDYWGQGTQVTVSS | low polyreactivity
40 | QVQLVESGGGLVQAGGSLRLSCAASGFTFEGYAMGWYRQAPGKERELVASISSGGGTNYADSVKGRFTISRDNAKNTVYLQMNSLKPEDTAVYYCAARAYPYFWTGQKLSRFGYWGQGTQVTVSS | high polyreactivity
41 | QVQLVESGGGLVQAGGSLRLSCAASGFTFEIYTMGWYRQAPGKERELVAAISTGGNTKYADSVKGRFTISRDNAKNTVYLQMNSLKPEDTAVYYCAKGRKPGYYYWGQGTQVTVSS | high polyreactivity
42 | QVQLVESGGGLVQAGGSLRLSCAASGFTFELYDMGWYRQAPGKERELVARITRSGGSTNYADSVKGRFTISRDNAKNTVYLQMNSLKPEDTAVYYCAAKSPLFGLTSYPGPDDSWGQGTQVTVSS | low polyreactivity
43 | QVQLVESGGGLVQAGGSLRLSCAASGFTFERYSMGWYRQAAGKEMELVASISRRSGRTSYADSVKGRFTISRDNAKNTVYLQMKSLIPEDTAVYYCAVDDAYPDGYDYWGQGTQVTVSS | high polyreactivity
